Laboratory results reported in US20080201790.

B1: MEKK1 (protein encoded by p-MEKK1, transiently expressed in COS cells) (protein)
chain: MVTAVPAVFSKLVTMLNASGSTHFTRMRRRLMAIADEVEIAEVIQLGVEDTVDGHQDSLQAVAPTSCLENSSLEHTVHREKTGKGLSATRLSASSEDISDRLAGVSVGLPSSTTTEQPKPAVQTKGRPHSQCLNSSPLSHAQLMFPAPSAPCSSAPSVPDISKHRPQAFVPCKIPSASPQTQRKFSLQFQRNCSEHRDSDQLSPVFTQSRPPPSSNIHRPKPSRPVPGSTSKLGDATKSSMTLDLGSASRCDDSFGGGGNSGNAVIPSDETVFTPVEDKCRLDVNTELNSSIEDLLEASMPSSDTTVTFKSEVAVLSPEKAENDDTYKDDVNHNQKCKEKMEAEEEEALAIAMAMSASQDALPIVPQLQVENGEDIIIIQQDTPETLPGHTKAKQPYREDAEWLKGQQIGLGAFSSCYQAQDVGTGTLMAVKQVTYVRNTSSEQEEVVEALREEIRMMGHLNHPNIIRMLGATCEKSNYNLFIEWMAGGSVAHLLSKYGAFKESVVINYTEQLLRGLSYLHENQIIHRDVKGANLLIDSTGQRLRIADFGAAARLASKGTGAGEFQGQLLGTIAFMAPEVLRGQQYGRSCDVWSVGCAIIEMACAKPPWNAEKHSNHLALIFKIASATTAPSIPSHLSPGLRDVAVRCLELQPQDRPPSRELLKHPVFRTTW
B2: HA epitope-tagged MEKK2 (expressed in HEK293 cells) (protein)
chain: MGYPYDVPDYASDDQQALNSIMQDLAVLHKPVGQHYLYKKPGKQNLHHQKNRMMFESNLNIEEEKRILQVTRPVKLEDLRSKSKIAFGQSMDLHYTNNELVIPLTTQDDLDKAVELLDRSIHMKSLKILLVVNGSTQATNLEPSPSPEDLNNTPLGAERKKRLSVVGPPNRDRSSPPPGYIPDILHQIARNGSFTSINSEGEFIPESMDQMLDPLSLSSPENSGSGSCPSLDSPLDGESYPKSRMPRAQSYPDNHQEFTDYDNPIFEKFGKGGTYPRRYHVSYHHQEYNDGRKTFPRARRTQGTSFRSPVSFSPTDHSLSTSSGSSVFTPEYDDSRIRRRGSDIDNPTLTVTDISPPSRSPRAPTNWRLGKLLGQGAFGRVYLCYDVDTGRELAVKQVQFNPESPETSKEVNALECEIQLLKNLLHERIVQYYGCLRDPQEKTLSIFMELSPGGSIKDQLKAYGALTENVTRKYTRQILEGVHYLHSNMIVHRDIKGANILRDSTGNIKLGDFGASKRLQTICLSGTGMKSVTGTPYWMSPEVISGEGYGRKADIWSVACTVVEMLTEKPPWAEFEAMAAIFKIATQPTNPKLPPHVSDYTRDFLKRIFVEAKLRPSAEELLRHMFVHYH
B3: HA epitope-tagged MEKK3 (expressed in HEK293 cells) (protein)
chain: MGYPYDVPDYASDEQEALDSIMKDLVALQMSRRTRLSGYETMKNKDTGHPNRQSDVRIKFEHNGERRIIAFSRPVRYEDVEHKVTTVFGQPLDLHYMNNELSILLKNQDDLDKAIDILDRSSSMKSLRILLLSQDRNHTSSSPHSGVSRQVRIKPSQSAGDINTIYQAPEPRSRHLSVSSQNPGRSSPPPGYVPERQQHIARQGSYTSINSEGEFIPETSEQCMLDPLSSAENSLSGSCQSLDRSADSPSFRKSQMSRARSFPDNRKECSDRETQLYDKGVKGGTYPRRYHVSVHHKDYNDGRRTFPRIRRHQGNLFTLVPSSRSLSTNGENMGVAVQYLDPRGRLRSADSENALTVQERNVPTKSPSAPINWRRGKLLGQGAFGRVYLCYDVDTGRELASKQVQFDPDSPETSKEVSALECEIQLLKNLQHERIVQYYGCLRDRAEKILTIFMEYMPGGSVKDQLKAYGALTESVTRKYTRQILEGMSYLHSNMIVHRDIKGANILRDSAGNVKLGDFGASKRLQTICMSGTGIRSVTGTPYWMSPEVISGEGYGRKADVWSLGCTVVEMLTEKPPWAEYEAMAAIFKIATQPTNPQLPSHISEHGRDFLRRIFVEARQRPSAEELLTHHFAQLVY

How the values were obtained:
[1] = biological target: recombinant catalytically inactive MEK-1 (Lys343 to Met, polyhistidine fusion), P31938
[2] = biological target: recombinant JNKK (substrate in Example 2)
[3] = biological target: recombinant MEK1 (substrate in Example 2)

Protein | phosphorylation of catalytically inactive MEK-1 by immunoprecipitated MEKK (γ-32P-ATP, SDS-PAGE, autoradiography) [1] | in vitro kinase assay of 12CA5 immunoprecipitates with a recombinant substrate and γ-32P-ATP [2] | in vitro kinase assay of 12CA5 immunoprecipitates with a recombinant substrate and γ-32P-ATP [3]
B1 | MEKK phosphorylated catalytically inactive MEK-1 |  | 
B2 |  | MEKK 2 clearly phosphorylates both MEK 1 and JNKK | MEKK 2 clearly phosphorylates both MEK 1 and JNKK
B3 |  | it did not show measurable kinase activity toward MEK 1 or JNKK | it did not show measurable kinase activity toward MEK 1 or JNKK
